Patent US20260152536

Legend:
IL-12p70-L3-TM = IL-12p70-L3-TM (UniProt P43432)
IL-12p70-L5-TM = IL-12p70-L5-TM (UniProt P43432)
IL-12p70-L2-TM = IL-12p70-L2-TM (UniProt P43432)
IL-12p70-L4s-TM = IL-12p70-L4s-TM (UniProt P43432)
IL-12p70-L4-TM = IL-12p70-L4-TM (UniProt P43432)
Sequence of IL-12p70-L4-TM (P43432 other isoform, or with tags, fused parts or gaps): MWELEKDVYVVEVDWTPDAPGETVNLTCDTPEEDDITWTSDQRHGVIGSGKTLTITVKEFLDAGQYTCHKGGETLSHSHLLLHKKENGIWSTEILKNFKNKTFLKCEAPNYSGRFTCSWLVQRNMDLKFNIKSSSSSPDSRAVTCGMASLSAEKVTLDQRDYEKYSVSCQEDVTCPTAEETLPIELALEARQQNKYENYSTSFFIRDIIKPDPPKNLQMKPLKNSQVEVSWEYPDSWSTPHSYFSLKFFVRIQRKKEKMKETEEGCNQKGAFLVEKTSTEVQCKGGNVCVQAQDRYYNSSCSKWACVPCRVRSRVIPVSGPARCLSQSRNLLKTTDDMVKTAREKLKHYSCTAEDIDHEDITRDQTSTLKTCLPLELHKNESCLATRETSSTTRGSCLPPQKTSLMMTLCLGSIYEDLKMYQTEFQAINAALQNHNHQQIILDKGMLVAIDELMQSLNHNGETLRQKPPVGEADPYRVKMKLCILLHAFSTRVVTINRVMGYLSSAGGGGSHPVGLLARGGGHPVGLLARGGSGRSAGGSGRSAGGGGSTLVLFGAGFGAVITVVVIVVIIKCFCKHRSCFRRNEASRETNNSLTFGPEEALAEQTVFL

Sequence of activated murine MMP2 (matrix metalloprotease 2) (chain, as listed by the source): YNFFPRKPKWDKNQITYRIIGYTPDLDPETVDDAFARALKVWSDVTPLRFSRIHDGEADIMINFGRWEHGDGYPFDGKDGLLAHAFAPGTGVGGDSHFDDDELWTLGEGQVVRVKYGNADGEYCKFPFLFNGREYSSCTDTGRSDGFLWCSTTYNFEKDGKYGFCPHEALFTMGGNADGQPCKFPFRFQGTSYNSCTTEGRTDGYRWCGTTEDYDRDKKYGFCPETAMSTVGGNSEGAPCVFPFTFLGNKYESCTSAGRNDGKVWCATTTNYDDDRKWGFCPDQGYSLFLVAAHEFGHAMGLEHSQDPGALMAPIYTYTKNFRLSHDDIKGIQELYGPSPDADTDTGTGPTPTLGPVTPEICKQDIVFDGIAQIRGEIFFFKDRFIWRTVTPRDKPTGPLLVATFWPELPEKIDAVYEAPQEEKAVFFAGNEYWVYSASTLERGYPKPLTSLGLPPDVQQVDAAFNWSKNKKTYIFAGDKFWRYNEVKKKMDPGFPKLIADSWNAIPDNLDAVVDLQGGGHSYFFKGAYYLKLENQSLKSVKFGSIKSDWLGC
Sequence of IL-12p70-L5-TM (P43432 other isoform, or with tags, fused parts or gaps): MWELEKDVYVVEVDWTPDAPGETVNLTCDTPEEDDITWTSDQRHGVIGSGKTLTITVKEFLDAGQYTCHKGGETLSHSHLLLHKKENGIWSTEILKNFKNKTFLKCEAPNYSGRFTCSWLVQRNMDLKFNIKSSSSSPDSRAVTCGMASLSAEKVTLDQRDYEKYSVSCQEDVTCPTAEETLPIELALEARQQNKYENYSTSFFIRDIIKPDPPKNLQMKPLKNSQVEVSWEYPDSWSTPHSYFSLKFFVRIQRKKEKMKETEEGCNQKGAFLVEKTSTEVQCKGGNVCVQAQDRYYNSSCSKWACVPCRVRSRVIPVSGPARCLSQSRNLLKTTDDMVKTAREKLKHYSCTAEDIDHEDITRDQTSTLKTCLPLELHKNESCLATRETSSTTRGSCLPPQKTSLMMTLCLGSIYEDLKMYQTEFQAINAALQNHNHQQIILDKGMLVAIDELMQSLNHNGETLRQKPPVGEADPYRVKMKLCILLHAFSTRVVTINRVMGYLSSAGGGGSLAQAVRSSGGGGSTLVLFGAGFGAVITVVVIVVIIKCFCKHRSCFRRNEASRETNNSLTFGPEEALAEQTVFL
Sequence of IL-12p70-L2-TM (P43432 other isoform, or with tags, fused parts or gaps): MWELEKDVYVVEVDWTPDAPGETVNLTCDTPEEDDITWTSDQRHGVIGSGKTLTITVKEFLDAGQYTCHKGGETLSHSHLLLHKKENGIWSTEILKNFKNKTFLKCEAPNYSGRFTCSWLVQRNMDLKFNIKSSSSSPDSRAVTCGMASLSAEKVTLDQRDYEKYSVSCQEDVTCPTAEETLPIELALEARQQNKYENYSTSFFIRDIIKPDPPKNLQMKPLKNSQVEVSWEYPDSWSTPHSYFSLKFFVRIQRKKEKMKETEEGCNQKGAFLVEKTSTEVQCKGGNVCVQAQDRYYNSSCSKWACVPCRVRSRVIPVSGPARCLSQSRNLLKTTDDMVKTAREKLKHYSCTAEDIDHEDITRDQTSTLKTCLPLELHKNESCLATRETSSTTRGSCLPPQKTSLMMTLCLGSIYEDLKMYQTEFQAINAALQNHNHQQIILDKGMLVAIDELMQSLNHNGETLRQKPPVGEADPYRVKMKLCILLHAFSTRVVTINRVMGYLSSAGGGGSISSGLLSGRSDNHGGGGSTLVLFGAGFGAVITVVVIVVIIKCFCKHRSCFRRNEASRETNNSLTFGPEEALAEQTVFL
Sequence of IL-12p70-L3-TM (P43432 other isoform, or with tags, fused parts or gaps): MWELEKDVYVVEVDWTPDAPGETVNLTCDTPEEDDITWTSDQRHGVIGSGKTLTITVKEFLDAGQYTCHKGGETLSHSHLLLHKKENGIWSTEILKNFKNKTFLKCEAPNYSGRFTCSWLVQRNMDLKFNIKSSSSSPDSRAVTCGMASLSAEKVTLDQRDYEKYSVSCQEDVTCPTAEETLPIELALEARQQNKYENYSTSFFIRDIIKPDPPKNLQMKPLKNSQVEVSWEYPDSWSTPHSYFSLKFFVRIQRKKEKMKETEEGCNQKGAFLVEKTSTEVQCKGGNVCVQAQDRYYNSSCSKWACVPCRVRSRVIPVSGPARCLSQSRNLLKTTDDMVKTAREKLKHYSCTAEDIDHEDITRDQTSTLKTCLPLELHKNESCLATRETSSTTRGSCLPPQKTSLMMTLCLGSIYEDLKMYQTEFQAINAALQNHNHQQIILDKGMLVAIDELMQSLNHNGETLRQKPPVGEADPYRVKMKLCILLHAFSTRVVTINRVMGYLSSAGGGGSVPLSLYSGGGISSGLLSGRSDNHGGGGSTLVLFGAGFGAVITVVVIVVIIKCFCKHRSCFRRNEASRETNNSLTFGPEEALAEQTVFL
Sequence of IL-12p70-L4s-TM (P43432 other isoform, or with tags, fused parts or gaps): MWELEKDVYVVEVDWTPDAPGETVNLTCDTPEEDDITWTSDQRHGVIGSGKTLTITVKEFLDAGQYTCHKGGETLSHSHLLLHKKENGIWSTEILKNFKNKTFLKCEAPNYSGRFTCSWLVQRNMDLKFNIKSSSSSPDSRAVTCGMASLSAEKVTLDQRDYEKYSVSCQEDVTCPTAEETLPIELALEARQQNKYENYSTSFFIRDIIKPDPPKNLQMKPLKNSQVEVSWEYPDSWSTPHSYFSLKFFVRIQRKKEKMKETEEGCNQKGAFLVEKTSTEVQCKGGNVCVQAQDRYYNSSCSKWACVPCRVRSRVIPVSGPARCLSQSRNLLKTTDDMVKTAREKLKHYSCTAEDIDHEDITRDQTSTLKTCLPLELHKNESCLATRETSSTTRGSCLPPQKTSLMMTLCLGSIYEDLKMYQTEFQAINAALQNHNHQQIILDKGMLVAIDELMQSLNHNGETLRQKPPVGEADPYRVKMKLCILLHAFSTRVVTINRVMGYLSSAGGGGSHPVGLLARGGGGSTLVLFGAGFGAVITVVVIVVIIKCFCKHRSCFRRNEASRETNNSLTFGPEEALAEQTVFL

Q: How did the “release of cleaved (therefore soluble) IL-12p70 into the supernatant, ELISA” value (from here on “release of cleaved”) (IL-12p70-L3-TM) turn out when “activated murine MMP2 (matrix metalloprotease 2)” was run?
A: a time-dependent release of IL-12p70 was observed

Q: And the “release of cleaved” value (IL-12p70-L5-TM)?
A: a time-dependent release of IL-12p70 was observed

Q: And the “release of cleaved” value (IL-12p70-L2-TM)?
A: a time-dependent release of IL-12p70 was observed

Q: And the “release of cleaved” value (IL-12p70-L4s-TM)?
A: a time-dependent release of IL-12p70 was observed

Q: What about the “release of cleaved” value (IL-12p70-L4-TM) of the same substance?
A: a time-dependent release of IL-12p70 was observed
